Data on four molecules can be found in US20240005439A1, “IMAGING METHODS AND RADIOTRACERS FOR USE THEREIN” (VESTLANDETS INNOVASJONSSELSKAP AS (VIS), priority 2020, published 2024).

A short description of series [1]: Iohexol plasma clearance in mice. Conditions: mouse, intravenous, 100 μl (iohexol diluted 1:10 from stock solution), male C3H mice, read-out: GFR with the iohexol plasma clearance method. The format is in vivo. As for the experimental part:
Male mice (C3H, n=8) anesthetized with isoflurane were injected i.v. in the tail vein with 100 μl iohexol (diluted 1:10 from stock solution). 15 minutes following the injection, the mice were re-anesthetized with isoflurane and were kept anesthetized until termination of the experiments. Blood samples (each 20 μl) were collected from the retro-orbital space at 15, 30, 45 and 60 minutes.
Iohexol clearance was calculated by a bi-exponential method as: GFR=Dose/AUC, where AUC is the area under the plasma iohexol concentration curve. In addition, the slope of the second mono-exponential phase of the plasma disappearance curve for iohexol (k) was calculated using blood samples taken at 60, 90, 120, and 180 minutes.
For measurement of iohexol, all blood samples were centrifuged at 2000 g for collection of plasma. Plasma samples (5 μl from rats and 1 μl from mice) were immediately diluted 7.5-60 times by 0.1% (v/v) trifluoroacetic acid (TFA) in water and their iohexol concentrations were measured by two-dimensional HPLC using the Thermo Scientific™ Dionex™ UltiMate™ […] Rapid Separation series hardware, column switching and Chromeleon Chromatography Data System software (7.2.10). […] Both columns were washed separately by 99.9% acetonitrile/0.1% TFA, re-equilibrated in 0.1% TFA in water and ready for the next sample 9 minutes after injection. […]

The next series in a line: Iohexol plasma clearance. Conditions: for GFR relative to the initial control value (iohexol): CKD rats; for clearance: rat, plasma, 105 mg. Type of series: in vivo, rats.
Another series can be described thus: Mouse PET-CT GFR. The format is in vivo. The settings on record: male C3H mice. Here is the method:
All animals were scanned using the same scanner, anesthesia procedure, monitoring and positioning as mentioned above. First, CT semicircular scans (same settings as contrast CT) were acquired from the lower edge of the ribs to the pelvis for anatomical reference and attenuation correction for PET. Following CT, a 10-minute dynamic PET acquisition was initiated, which was started 30 seconds before the bolus injection (30 sec duration of the injection) of 5-10 MBq ^18F-cytochrome C diluted in 1 ml saline through a tail vein catheter. […]
In more detail, 6 input function candidates were generated from 6 sphere-VOIs with diameters of 5, 6, 7, 8, 9, and 10 mm centered on the maximal signal intensity from the vessels and used for regression analyses to obtain an unbiased estimate of the area under the input function (AUC). […] An unbiased AUC was obtained from the regression analysis using a VOI-volume (x in regression equation) corresponding to a blood vessel diameter of 2.41 mm as measured by the ruler function with the software on the contrast CT images (n=8 images from 8 rats, SD=0.02). […] The auto segmentation tool was used to collect the ^18F-signals from both kidneys at 5.5 minutes using thresholds that gave VOI-volumes that matched the kidney volumes as measured by contrast CT. […]

Details of series [2]: species or system rats. The settings on record: rat, in vivo. As for the experimental part:
(§1) All animals were scanned using the same scanner, anesthesia procedure, monitoring and positioning as mentioned above. First, CT semicircular scans (same settings as contrast CT) were acquired from the lower edge of the ribs to the pelvis for anatomical reference and attenuation correction for PET. Following CT, a 10-minute dynamic PET acquisition was initiated, which was started 30 seconds before the bolus injection (30 sec duration of the injection) of 5-10 MBq ^18F-cytochrome C diluted in 1 ml saline through a tail vein catheter. Images were reconstructed in 1-5 coincidence mode using the Tera-Tomo 3D reconstruction algorithm (Mediso) with 4 iterations/6 subsets, corrected for attenuation and scatter with a resulting 0.4 mm^3 voxel size. The PET acquisition was reconstructed to 15 timeframes: […]; 6×30 s; 3×120 s.
To investigate the initial distribution, uptake and excretion of ^18F-cytochrome C in the body, two rats were dynamically scanned by PET-CT for 30 minutes. […] The ^18F signal peaked over the large abdominal vessels in less than 1 minute and appeared in the bladder in less than 10 minutes. After 10 minutes, the bladder signal increased exponentially and the kidney signal leveled out reflecting urinary excretion of ^18F-cytochrome C breakdown products.

A short description of series [3]: PET GFR scanning (kidney activity divided by AUC). The format is in vivo, rats. Conditions: for GFR relative to the initial control value (PET-CT): CKD rats. Here is the method: as §1
SD male rats (n=8) were fed by 0.35% adenine in the chow (Altromin, Denmark) for 7 weeks to induce chronic kidney disease (CKD). PET-CT GFR scanning was performed at baseline and at 3, 5 and 7 weeks after initiation of adenine feeding. Iohexol clearance (described below) was performed at baseline and after 3, 5 and 7 weeks of adenine feeding. Blood samples were taken every second week for creatinine measurements.
All images were analyzed using Inter View Fusion version 3.01.021.0000 (Mediso), and CT and PET images were automatically aligned. The sphere selection volume of interest (VOI) function was used to collect the signal from the large abdominal vessels close to the distal aorta branch level in the frame with the highest intensity and copied to all other frames to obtain the ^18F-cytochrome C intensity as a function of time (input function).
In more detail, 6 input function candidates were generated from 6 sphere-VOIs with diameters of 5, 6, 7, 8, 9, and 10 mm centered on the maximal signal intensity from the vessels and used for regression analyses to obtain an unbiased estimate of the area under the input function (AUC). […] An unbiased AUC was obtained from the regression analysis using a VOI-volume (x in regression equation) corresponding to a blood vessel diameter of 2.41 mm as measured by the ruler function with the software on the contrast CT images (n=8 images from 8 rats, SD=0.02). This approach was verified by ex vivo blood and kidney samples in a separate set of rats (n=8), i.e. the ^18F-clearances obtained by ex vivo sampling were not different from those obtained by the PET images. The same approach was adopted for mice using sphere diameters of 1, 1.5, 2, 2.5, 3, 3.5, and 4 mm and abdominal vessel diameter of 0.9 mm (n=8 mice, SD=0.07). The auto segmentation tool was used to collect the ^18F-signals from both kidneys at 5.5 minutes using thresholds that gave VOI-volumes that matched the kidney volumes as measured by contrast CT. The total kidney ^18F-activity was calculated as the mean VOI-intensity multiplied with the kidney cortex volume (total kidney volume from CT×2/3) and divided by AUC to obtain GFR.

The nature of series [4]: Stability and plasma protein binding of labelled proteins by SEC-HPLC. The format is physicochemical. Conditions: high resolution size exclusion chromatography. As for the experimental part: The stability and plasma protein binding of stock solutions of ^18F-cytochrome C and ^124I-cystatin C was evaluated by high resolution size exclusion chromatography (SEC-HPLC) after 12 h storage in room temperature and after 8 days of storage in fridge (4° C.).

With `CC(=O)N(CC(O)CO)c1c(I)c(C(=O)NCC(O)CO)c(I)c(C(=O)NCC(O)CO)c1I` (stereo not shown) [Iohexol], the clearance in series [1] was 0.51 ± 0.13 mL/min; in “Iohexol plasma clearance” (intravenous, SD male rats, baseline before 0.35% adenine (CKD model), read-out: Mean GFR estimated from iohexol clearance), 2.89 ± 0.14 mL/min; in “Iohexol plasma clearance” (iv, SD female rats (n = 6), read-out: GFR Iohexol (iohexol clearance)), 2.25 ± 0.26 mL/min; in “Iohexol plasma clearance” (iv, SD male rats (n = 8), read-out: GFR Iohexol (iohexol clearance)), 2.89 ± 0.12 mL/min; in “Iohexol plasma clearance” (iv, Wistar male rats (n = 6), read-out: GFR Iohexol (iohexol clearance)), 2.84 ± 0.34 mL/min. Also, the “GFR relative to the initial control value (iohexol)” value in “Iohexol plasma clearance” (3 weeks of adenine) was −50%; in “Iohexol plasma clearance” (7 weeks of adenine), −20%. Besides, the results for the “GFR Iohexol/100 g” value in the series “Iohexol plasma clearance” (SD female rats (n = 6)), in “Iohexol plasma clearance” (SD male rats (n = 8)) and in the series “Iohexol plasma clearance” (Wistar male rats (n = 6)) were 0.73 ± 0.07 ml/min · 100 g, 0.59 ± 0.06 ml/min · 100 g and 0.64 ± 0.01 ml/min · 100 g, respectively. The “k, plasma disappearance rate constant of iohexol for the second mono-exponential phase” value in “Iohexol plasma clearance” (SD female rats (n = 6)) was determined as 0.026 ± 0.002 min⁻¹; in the series “Iohexol plasma clearance” (SD male rats (n = 8)), 0.025 ± 0.002 min⁻¹; in the series “Iohexol plasma clearance” (Wistar male rats (n = 6)), 0.027 ± 0.002 min⁻¹. In addition, in “Iohexol plasma clearance” (SD females (n=6), FIG. 5D), the “iohexol-based GFR” value was 2.3 ± 0.3 mL/min.

For “^18F-cytochrome C: Cytochrome C from bovine heart labelled with [^18F]F-Py-TFP, comprising a 6-[^18F]fluoropyridine-3-carboxy group”, the “GFR measured with PET” value in the series “Mouse PET-CT GFR” turned out to be 0.55 ± 0.12 mL/min. Besides, in series [2], the “Involvement of other organs such as liver and spleen” value is listed as “negligible involvement of other organs”. Besides, in series [2] (iv), the “Time of ^18F signal appearance in the bladder” value is “less than 10 minutes”. Besides, the “Time of ^18F signal peak over the large abdominal vessels” value in series [2] (iv) is listed as “less than 1 minute”. The “GFR relative to the initial control value (PET-CT)” value is on record as −50% in series [3] (3 weeks of adenine) and −20% in series [3] (7 weeks of adenine). Moreover, the “GFR (PET)” value in series [3] (SD female rats (n = 6)) amounted to 1.88 ± 0.16 mL/min; in series [3] (SD male rats (n = 8)), 3.20 ± 0.12 mL/min; in series [3] (Wistar male rats (n = 6)), 3.01 ± 0.35 mL/min. Besides, the “GFR/100 g (PET)” value in series [3] (SD female rats (n = 6)) is listed as 0.61 ± 0.06 ml/min · 100 g rat; in series [3] (SD male rats (n = 8)) it was 0.66 ± 0.07 ml/min · 100 g rat; in series [3] (Wistar male rats (n = 6)), 0.68 ± 0.11 ml/min · 100 g rat. Moreover, the “PET-CT GFR” value in series [3] (SD females (n=6), FIG. 5D) is 2.3 ± 0.3 mL/min. The “Mean GFR, PET-CT value” in series [3] (SD male rats, baseline before 0.35% adenine (CKD model)) is 2.94 ± 0.12 mL/min. In addition, in series [4], the “Dimer formation / protein binding (size exclusion HPLC elution pattern)” value (“Dimer formation / protein binding” below) is “no sign of dimer formation or protein binding”.

B1: unlabelled cystatin C: Human cystatin C purchased from Nordic BioSite, unlabelled (protein, UniProt P01034 27-146, looked up)
Cystatin-C: SSPGKPPRLVGGPMDASVEEEGVRRALDFAVGEYNKASNDMYHSRALQVVRARKQIVAGVNYFLDVELGRTTCTKTQPNLDNCPFHDQPHLKRKAFCSFQIYAVPWQGTMTLSKSTCQDA
Turning to B1, the “Dimer formation / protein binding” value in series [4] is given as “appeared mainly as dimers”.

B2: ^124I-labelled cystatin C: Human cystatin C (Nordic BioSite) labelled with ^124I for PET by Iodo-Gen (protein, UniProt P01034 27-146, looked up)
Cystatin-C: SSPGKPPRLVGGPMDASVEEEGVRRALDFAVGEYNKASNDMYHSRALQVVRARKQIVAGVNYFLDVELGRTTCTKTQPNLDNCPFHDQPHLKRKAFCSFQIYAVPWQGTMTLSKSTCQDA
modifications: 124I label
notes: Human cystatin C (Nordic BioSite) labelled with ^124I for PET by Iodo-Gen
B2: the “Dimer formation / protein binding” value in series [4] is recorded as “appeared mainly as dimers”.
